# Experimental data as given in publication PMC6359636, “Advances in Drug Delivery and Biomaterials: Facts and Vision” (Pharmaceutics, 2019).
# B1: Tissue plasminogen activator (protein, UniProt P00750 36-562, looked up)
# Tissue-type plasminogen …: SYQVICRDEKTQMIYQQHQSWLRPVLRSNRVEYCWCNSGRAQCHSVPVKSCSEPRCFNGGTCQQALYFSDFVCQCPEGFAGKCCEIDTRATCYEDQGISYRGTWSTAESGAECTNWNSSALAQKPYSGRRPDAIRLGLGNHNYCRNPDRDSKPWCYVFKAGKYSSEFCSTPACSEGNSDCYFGNGSAYRGTHSLTESGASCLPWNSMILIGKVYTAQNPSAQALGLGKHNYCRNPDGDAKPWCHVLKNRRLTWEYCDVPSCSTCGLRQYSQPQFRIKGGLFADIASHPWQAAIFAKHRRSPGERFLCGGILISSCWILSAAHCFQERFPPHHLTVILGRTYRVVPGEEEQKFEVEKYIVHKEFDDDTYDNDIALLQLKSDSSRCAQESSVVRTVCLPPADLQLPDWTECELSGYGKHEALSPFYSERLKEAHVRLYPSSRCTSQHLLNRTVTDNMLCAGDTRSGGPQANLHDACQGDSGGPLVCLNDGRMTLVGIISWGLGCGQKDVPGVYTKVTNYLDWIRDNMRP
# Tested on: blood clots
# Assay: Blood clot resolution in murine mesentery venules
# Type: in vivo
# Description: Here, a novel thrombolytic nanoagent is realized by conjugating directly the clinical formulation of tPA to the porous structure of soft discoidal polymeric nanoconstructs (tPA-DPNs).
molecule,measurement,setting,value
B1,clots dissolved / vessels,"1.0 mg/kg, about 1 tenth of the clinical dose",16%
same,blood clots resolved / vessels recanalized,"intravenous, 2.5 mg/kg",about 40%
